The source of these data is PMC6170708.

In experiment [1] the target is recombinant HBeAg dimer (construct Cp(−10) 149 C48A.C107A) (Hepatitis B virus (strain not stated)) (UniProt P03147). As to the kind of experiment: AUC.
Experiment [2] concerns the target recombinant HBcAg assembly domain dimer (construct Cp1–149.C48A.C107A) (Hepatitis B virus (strain not stated)) (UniProt P03147). As to the kind of experiment: AUC.

On to “recombinant HBeAg dimer (construct Cp(−10) 149 C48A.C107A) (from UniProt P03147 1-149) (domain or fragment)”, for which the percent of dimers converted to capsids (the pair that is blocked) in experiment [1] was 40%.
By stoichiometry N is commonly meant a count of units in the complex or per binding partner. As to “recombinant HBcAg assembly domain dimer (construct Cp1–149.C48A.C107A) (from UniProt P03147 1-149) (domain or fragment)”, in experiment [2], the stoichiometry N was found to be 2.
